B1: HDV Ribozyme (parent)
chain: GGCCGGCAUGGUCCCAGCCUCCUCGCUGGCGCCGGCUGGGCAACAUUCCGAGGGGACCGUCCCCUCGGUAAUGGCGAAUGGGACCCA

Variants of: B1
Experiment: self-cleavage, relative activity (ratio to wild type); higher = more cleavage; co-transcriptional
G81C C84A gave a self-cleavage of 0.26.
U72G G76U showed a self-cleavage of 0.646.
In the case of U72G G76C, the self-cleavage is reported as 0.594.
C75A C84A gave a self-cleavage of 0.269.
For C75A C84U, the self-cleavage was 0.0545.
With G73C C75U the self-cleavage was 0.0755.
Work on G74A U79A yielded a self-cleavage of 0.0852.
With G76U A87G the self-cleavage was 1.13.
In the case of G76U A87C, the self-cleavage is reported as 1.17.
G73C G74A gave a self-cleavage of 0.422.
G73C G74U showed a self-cleavage of 0.166.
G73C A87C showed a self-cleavage of 0.592.
For G73C A87G, the self-cleavage was 0.454.
For G74A C86G, the self-cleavage was 0.375.
In the case of G74A C86A, the self-cleavage is reported as 0.537.
For G74U G80U, the self-cleavage was 0.0956.
Work on C75G C86G yielded a self-cleavage of 0.
Work on C75G C86U yielded a self-cleavage of 0.156.
For A78G U79A, the self-cleavage was 0.317.
U72G U79A showed a self-cleavage of 0.534.
U72G U79C showed a self-cleavage of 0.297.
G73U U79C showed a self-cleavage of 0.169.
For G73U U79A, the self-cleavage was 0.131.
In the case of G73U C75A, the self-cleavage is reported as 0.107.
Variant G73U C75U has a self-cleavage of 0.111.
In the case of G74C A77G, the self-cleavage is reported as 0.145.
Variant G80A C85A has a self-cleavage of 0.408.
For A77U C85G, the self-cleavage was 0.299.
Variant A77U C85U has a self-cleavage of 0.96.
Variant A78U G81A has a self-cleavage of 0.182.
G74U U79G gave a self-cleavage of 0.199.
G80A A83C showed a self-cleavage of 0.135.
For G76C C84G, the self-cleavage was 0.618.
With G82C C84U the self-cleavage was 0.166.
Variant G80C A87U has a self-cleavage of 0.177.
With G73A C75U the self-cleavage was 0.119.
With G73A C75G the self-cleavage was 0.19.
C75A C86U gave a self-cleavage of 0.0615.
With C75A A78C the self-cleavage was 0.104.
Variant C75A A78G has a self-cleavage of 0.0898.
Variant G74U C86A has a self-cleavage of 0.389.
Work on G74U C86U yielded a self-cleavage of 0.648.
With A77C A87U the self-cleavage was 0.466.
G80U C86G gave a self-cleavage of 0.243.
In the case of G81U A83G, the self-cleavage is reported as 0.152.
With A77G G82C the self-cleavage was 0.389.
Variant U79A C85G has a self-cleavage of 0.997.
C75G G81A gave a self-cleavage of 0.0332.
In the case of C75G G81U, the self-cleavage is reported as 0.133.
With C86G A87G the self-cleavage was 0.905.
C86G A87U showed a self-cleavage of 0.965.
Variant A83C C84G has a self-cleavage of 0.231.
A83C C84A showed a self-cleavage of 0.78.
U72G G81C gave a self-cleavage of 0.0791.
For G76A G81C, the self-cleavage was 0.302.
Work on C84U C86A yielded a self-cleavage of 0.767.
C84A C85A showed a self-cleavage of 0.571.
For C84A C85U, the self-cleavage was 0.639.
Variant G76A A87C has a self-cleavage of 1.03.
With C85A C86A the self-cleavage was 0.924.
A78C G80C gave a self-cleavage of 0.0514.
In the case of A78C G80A, the self-cleavage is reported as 0.174.
In the case of A78C G80U, the self-cleavage is reported as 0.174.
Variant G82U A83U has a self-cleavage of 0.289.
In the case of G82U A83G, the self-cleavage is reported as 0.137.
For U79C G80A, the self-cleavage was 0.129.
For U79C G80U, the self-cleavage was 0.267.
A78C A83U gave a self-cleavage of 0.166.
C75A G81U gave a self-cleavage of 0.155.
C75A G81C gave a self-cleavage of 0.157.
With U72G G74C the self-cleavage was 0.237.
In the case of C85U C86A, the self-cleavage is reported as 0.923.
Work on C85U C86G yielded a self-cleavage of 0.946.
Work on G73C A77G yielded a self-cleavage of 0.44.
G74U A87U showed a self-cleavage of 0.506.
G74A G82U gave a self-cleavage of 0.125.
With C75A A77G the self-cleavage was 0.0875.
With C85U A87U the self-cleavage was 0.956.
For U79G G80C, the self-cleavage was 0.277.
In the case of G80U G82C, the self-cleavage is reported as 0.332.
Work on A77G C86A yielded a self-cleavage of 1.15.
A77G C86G gave a self-cleavage of 0.886.
For G81A A87U, the self-cleavage was 0.565.
In the case of A83U C84U, the self-cleavage is reported as 0.87.
In the case of C75G G80C, the self-cleavage is reported as 0.0709.
G81U C84A gave a self-cleavage of 0.378.
With C84G C85A the self-cleavage was 0.928.
Work on C84G C85U yielded a self-cleavage of 0.719.
With A78U A83C the self-cleavage was 0.324.
Work on G76U A78G yielded a self-cleavage of 1.34.
Work on A83U C86U yielded a self-cleavage of 0.95.
For A77U A87C, the self-cleavage was 0.655.
In the case of G73A G82C, the self-cleavage is reported as 0.172.
With C75A A87C the self-cleavage was 0.202.
For U72G G80C, the self-cleavage was 0.26.
Work on G73U A87C yielded a self-cleavage of 0.385.
G73U A87U showed a self-cleavage of 0.374.
G80U A87C showed a self-cleavage of 0.192.
In the case of G80U A87G, the self-cleavage is reported as 0.272.
With G76U the self-cleavage was 1.03.
Variant G76A has a self-cleavage of 1.04.
Variant G76C has a self-cleavage of 1.
A83G A87G gave a self-cleavage of 0.733.
A83G A87U gave a self-cleavage of 0.861.
Variant C75U G81C has a self-cleavage of 0.16.
Work on A77C C86A yielded a self-cleavage of 0.407.
G73A A83C showed a self-cleavage of 0.198.
For A77G G80C, the self-cleavage was 0.0437.
A78U U79A gave a self-cleavage of 0.095.
For G74A G76U, the self-cleavage was 0.727.
For G73A C86A, the self-cleavage was 0.781.
In the case of A78U G82U, the self-cleavage is reported as 0.197.
A78U G82C showed a self-cleavage of 0.0302.
With G76U C86U the self-cleavage was 0.852.
G73U A83G showed a self-cleavage of 0.219.
G74C C85G showed a self-cleavage of 0.0791.
For G74C G80A, the self-cleavage was 0.227.
G82U C86G showed a self-cleavage of 0.39.
U72G G82U showed a self-cleavage of 0.
In the case of G82C C86U, the self-cleavage is reported as 0.285.
G74U A83U gave a self-cleavage of 0.259.
With U79G A83C the self-cleavage was 0.204.
G82A C85U gave a self-cleavage of 0.495.
In the case of G82A C85A, the self-cleavage is reported as 0.253.
Work on G73U C85U yielded a self-cleavage of 0.458.
G73A G76A showed a self-cleavage of 0.665.
G74C C84U gave a self-cleavage of 0.196.
In the case of G74C G82C, the self-cleavage is reported as 0.0475.
G74C G82A showed a self-cleavage of 0.166.
For G74A A78U, the self-cleavage was 0.173.

Source: the RNAGym collection of RNA variant scans (doi:10.7554/elife.80360)
